Source: publication PMC10786891, “Massively parallel profiling of RNA-targeting CRISPR-Cas13d”

T1: EsCas13d, nuclease-dead (Eubacterium siraeum, UniProt B0MS50, R295A;H300A;R849A;H854A)
T1 sequence: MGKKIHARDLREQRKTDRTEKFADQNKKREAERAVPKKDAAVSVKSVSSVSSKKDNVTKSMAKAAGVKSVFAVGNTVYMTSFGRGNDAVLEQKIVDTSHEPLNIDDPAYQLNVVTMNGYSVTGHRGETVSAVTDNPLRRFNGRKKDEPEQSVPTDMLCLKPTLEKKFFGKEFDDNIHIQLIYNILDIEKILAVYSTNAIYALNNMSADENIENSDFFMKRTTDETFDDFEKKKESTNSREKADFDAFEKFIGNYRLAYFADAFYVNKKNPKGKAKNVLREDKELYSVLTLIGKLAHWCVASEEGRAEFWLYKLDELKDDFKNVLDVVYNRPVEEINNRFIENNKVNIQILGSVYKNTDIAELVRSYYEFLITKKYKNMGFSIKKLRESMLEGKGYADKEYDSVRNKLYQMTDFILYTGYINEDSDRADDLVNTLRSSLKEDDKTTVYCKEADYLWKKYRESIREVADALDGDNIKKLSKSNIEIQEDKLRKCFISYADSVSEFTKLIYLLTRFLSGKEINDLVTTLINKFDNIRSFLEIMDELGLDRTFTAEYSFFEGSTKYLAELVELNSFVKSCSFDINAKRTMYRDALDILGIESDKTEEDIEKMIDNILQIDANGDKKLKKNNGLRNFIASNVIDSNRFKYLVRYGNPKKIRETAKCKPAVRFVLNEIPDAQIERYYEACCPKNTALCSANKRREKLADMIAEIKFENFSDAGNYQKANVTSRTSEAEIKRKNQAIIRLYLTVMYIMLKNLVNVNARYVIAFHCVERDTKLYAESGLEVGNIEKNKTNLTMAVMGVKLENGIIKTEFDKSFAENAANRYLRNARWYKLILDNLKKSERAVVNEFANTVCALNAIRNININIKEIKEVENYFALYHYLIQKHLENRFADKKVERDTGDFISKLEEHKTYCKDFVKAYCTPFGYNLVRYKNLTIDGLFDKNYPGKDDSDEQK

B1: target 2 MT 5'PFS UCU 3'PFS UUA (mixed)
RNA 1: CACCCGUGCAAAAUUGCAGGGGUCUAAAACCUUCUCCAAAUUGUUUCAUCCU
RNA 2: GGGAAUGGAUCCACAUCUACGAAUUCUCUAGGAUGAAACAAUUUGGAGAAGUUAAGAUCGGAAGAGCACACGU
B2: target 2 MT 5'PFS GGC 3'PFS CGU (mixed)
RNA 1: CACCCGUGCAAAAUUGCAGGGGUCUAAAACCUUCUCCAAAUUGUUUCAUCCU
RNA 2: GGGAAUGGAUCCACAUCUACGAAUUCGGCAGGAUGAAACAAUUUGGAGAAGCGUAGAUCGGAAGAGCACACGU
B3: target 2 MT 5'PFS ACC 3'PFS ACU (mixed)
RNA 1: CACCCGUGCAAAAUUGCAGGGGUCUAAAACCUUCUCCAAAUUGUUUCAUCCU
RNA 2: GGGAAUGGAUCCACAUCUACGAAUUCACCAGGAUGAAACAAUUUGGAGAAGACUAGAUCGGAAGAGCACACGU
B4: target 2 MT 5'PFS AUA 3'PFS UGU (mixed)
RNA 1: CACCCGUGCAAAAUUGCAGGGGUCUAAAACCUUCUCCAAAUUGUUUCAUCCU
RNA 2: GGGAAUGGAUCCACAUCUACGAAUUCAUAAGGAUGAAACAAUUUGGAGAAGUGUAGAUCGGAAGAGCACACGU
B5: target 2 MT 5'PFS ACC 3'PFS ACG (mixed)
RNA 1: CACCCGUGCAAAAUUGCAGGGGUCUAAAACCUUCUCCAAAUUGUUUCAUCCU
RNA 2: GGGAAUGGAUCCACAUCUACGAAUUCACCAGGAUGAAACAAUUUGGAGAAGACGAGAUCGGAAGAGCACACGU
B6: target 2 MT 5'PFS AGU 3'PFS UAC (mixed)
RNA 1: CACCCGUGCAAAAUUGCAGGGGUCUAAAACCUUCUCCAAAUUGUUUCAUCCU
RNA 2: GGGAAUGGAUCCACAUCUACGAAUUCAGUAGGAUGAAACAAUUUGGAGAAGUACAGAUCGGAAGAGCACACGU
B7: target 2 MT 5'PFS ACC 3'PFS ACC (mixed)
RNA 1: CACCCGUGCAAAAUUGCAGGGGUCUAAAACCUUCUCCAAAUUGUUUCAUCCU
RNA 2: GGGAAUGGAUCCACAUCUACGAAUUCACCAGGAUGAAACAAUUUGGAGAAGACCAGAUCGGAAGAGCACACGU
B8: target 2 MT 5'PFS ACA 3'PFS AAC (mixed)
RNA 1: CACCCGUGCAAAAUUGCAGGGGUCUAAAACCUUCUCCAAAUUGUUUCAUCCU
RNA 2: GGGAAUGGAUCCACAUCUACGAAUUCACAAGGAUGAAACAAUUUGGAGAAGAACAGAUCGGAAGAGCACACGU
B9: target 2 MT 5'PFS AAA 3'PFS UCU (mixed)
RNA 1: CACCCGUGCAAAAUUGCAGGGGUCUAAAACCUUCUCCAAAUUGUUUCAUCCU
RNA 2: GGGAAUGGAUCCACAUCUACGAAUUCAAAAGGAUGAAACAAUUUGGAGAAGUCUAGAUCGGAAGAGCACACGU
B10: target 2 MT 5'PFS UAU 3'PFS UUU (mixed)
RNA 1: CACCCGUGCAAAAUUGCAGGGGUCUAAAACCUUCUCCAAAUUGUUUCAUCCU
RNA 2: GGGAAUGGAUCCACAUCUACGAAUUCUAUAGGAUGAAACAAUUUGGAGAAGUUUAGAUCGGAAGAGCACACGU
B11: target 1 A1U,G13A (mixed)
RNA 1: CACCCGUGCAAAAAUGCAGGGGUCUAAAACUGAGCGGAUAACCUCUCUAUGG
RNA 2: GGGAAUGGAUCCACAUCUACGAAUUCGUACCAUAGAGAAGUUAUCCGCUCUCCGAGAUCGGAAGAGCACACGU
B12: target 2 MT 5'PFS UCA 3'PFS CUC (mixed)
RNA 1: CACCCGUGCAAAAUUGCAGGGGUCUAAAACCUUCUCCAAAUUGUUUCAUCCU
RNA 2: GGGAAUGGAUCCACAUCUACGAAUUCUCAAGGAUGAAACAAUUUGGAGAAGCUCAGAUCGGAAGAGCACACGU
B13: target 2 MT 5'PFS CUG 3'PFS AUC (mixed)
RNA 1: CACCCGUGCAAAAUUGCAGGGGUCUAAAACCUUCUCCAAAUUGUUUCAUCCU
RNA 2: GGGAAUGGAUCCACAUCUACGAAUUCCUGAGGAUGAAACAAUUUGGAGAAGAUCAGAUCGGAAGAGCACACGU
B14: target 2 MT 5'PFS UAU 3'PFS UUG (mixed)
RNA 1: CACCCGUGCAAAAUUGCAGGGGUCUAAAACCUUCUCCAAAUUGUUUCAUCCU
RNA 2: GGGAAUGGAUCCACAUCUACGAAUUCUAUAGGAUGAAACAAUUUGGAGAAGUUGAGAUCGGAAGAGCACACGU
B15: target 2 MT 5'PFS AAA 3'PFS UCG (mixed)
RNA 1: CACCCGUGCAAAAUUGCAGGGGUCUAAAACCUUCUCCAAAUUGUUUCAUCCU
RNA 2: GGGAAUGGAUCCACAUCUACGAAUUCAAAAGGAUGAAACAAUUUGGAGAAGUCGAGAUCGGAAGAGCACACGU
B16: target 2 MT 5'PFS UAU 3'PFS UUA (mixed)
RNA 1: CACCCGUGCAAAAUUGCAGGGGUCUAAAACCUUCUCCAAAUUGUUUCAUCCU
RNA 2: GGGAAUGGAUCCACAUCUACGAAUUCUAUAGGAUGAAACAAUUUGGAGAAGUUAAGAUCGGAAGAGCACACGU
B17: target 2 MT 5'PFS UCA 3'PFS CUA (mixed)
RNA 1: CACCCGUGCAAAAUUGCAGGGGUCUAAAACCUUCUCCAAAUUGUUUCAUCCU
RNA 2: GGGAAUGGAUCCACAUCUACGAAUUCUCAAGGAUGAAACAAUUUGGAGAAGCUAAGAUCGGAAGAGCACACGU
B18: target 2 MT 5'PFS AAA 3'PFS UCC (mixed)
RNA 1: CACCCGUGCAAAAUUGCAGGGGUCUAAAACCUUCUCCAAAUUGUUUCAUCCU
RNA 2: GGGAAUGGAUCCACAUCUACGAAUUCAAAAGGAUGAAACAAUUUGGAGAAGUCCAGAUCGGAAGAGCACACGU
B19: target 2 MT 5'PFS UCA 3'PFS CUG (mixed)
RNA 1: CACCCGUGCAAAAUUGCAGGGGUCUAAAACCUUCUCCAAAUUGUUUCAUCCU
RNA 2: GGGAAUGGAUCCACAUCUACGAAUUCUCAAGGAUGAAACAAUUUGGAGAAGCUGAGAUCGGAAGAGCACACGU
B20: target 2 MT 5'PFS GCG 3'PFS CGC (mixed)
RNA 1: CACCCGUGCAAAAUUGCAGGGGUCUAAAACCUUCUCCAAAUUGUUUCAUCCU
RNA 2: GGGAAUGGAUCCACAUCUACGAAUUCGCGAGGAUGAAACAAUUUGGAGAAGCGCAGAUCGGAAGAGCACACGU
B21: target 2 MT 5'PFS GCA 3'PFS UAG (mixed)
RNA 1: CACCCGUGCAAAAUUGCAGGGGUCUAAAACCUUCUCCAAAUUGUUUCAUCCU
RNA 2: GGGAAUGGAUCCACAUCUACGAAUUCGCAAGGAUGAAACAAUUUGGAGAAGUAGAGAUCGGAAGAGCACACGU
B22: target 1 insA 3' of 13,insA 3' of 11 (mixed)
RNA 1: CACCCGUGCAAAAAUGCAGGGGUCUAAAACUGAGCGGAUAACCUCUCUAUGG
RNA 2: GGGAAUGGAUCCACAUCUACGAAUUCGUACCAUAGAGAGAGUAUAUCCGCUCACCGAGAUCGGAAGAGCACACGU
B23: target 2 MT 5'PFS GCA 3'PFS UAC (mixed)
RNA 1: CACCCGUGCAAAAUUGCAGGGGUCUAAAACCUUCUCCAAAUUGUUUCAUCCU
RNA 2: GGGAAUGGAUCCACAUCUACGAAUUCGCAAGGAUGAAACAAUUUGGAGAAGUACAGAUCGGAAGAGCACACGU
B24: target 2 MT 5'PFS GAC 3'PFS UAU (mixed)
RNA 1: CACCCGUGCAAAAUUGCAGGGGUCUAAAACCUUCUCCAAAUUGUUUCAUCCU
RNA 2: GGGAAUGGAUCCACAUCUACGAAUUCGACAGGAUGAAACAAUUUGGAGAAGUAUAGAUCGGAAGAGCACACGU
B25: target 2 MT 5'PFS GCA 3'PFS UAA (mixed)
RNA 1: CACCCGUGCAAAAUUGCAGGGGUCUAAAACCUUCUCCAAAUUGUUUCAUCCU
RNA 2: GGGAAUGGAUCCACAUCUACGAAUUCGCAAGGAUGAAACAAUUUGGAGAAGUAAAGAUCGGAAGAGCACACGU
B26: target 2 MT 5'PFS UAU 3'PFS CAA (mixed)
RNA 1: CACCCGUGCAAAAUUGCAGGGGUCUAAAACCUUCUCCAAAUUGUUUCAUCCU
RNA 2: GGGAAUGGAUCCACAUCUACGAAUUCUAUAGGAUGAAACAAUUUGGAGAAGCAAAGAUCGGAAGAGCACACGU
B27: target 2 MT 5'PFS UAU 3'PFS CAC (mixed)
RNA 1: CACCCGUGCAAAAUUGCAGGGGUCUAAAACCUUCUCCAAAUUGUUUCAUCCU
RNA 2: GGGAAUGGAUCCACAUCUACGAAUUCUAUAGGAUGAAACAAUUUGGAGAAGCACAGAUCGGAAGAGCACACGU
B28: target 2 MT 5'PFS UAU 3'PFS CAG (mixed)
RNA 1: CACCCGUGCAAAAUUGCAGGGGUCUAAAACCUUCUCCAAAUUGUUUCAUCCU
RNA 2: GGGAAUGGAUCCACAUCUACGAAUUCUAUAGGAUGAAACAAUUUGGAGAAGCAGAGAUCGGAAGAGCACACGU

target: T1, EsCas13d, nuclease-dead; assay: crRNA (strand 1, pre-loaded); Mg2+; 40 mM Tris-HCl pH 7.5, 150 mM NaCl, 6 mM MgCl2, 1 mM DTT, 0.1% Tween-20, 0.2 mg/ml BSA; 25 C; 10 min per concentration, then washed; conditions: tags: His6-TwinStrep-SUMO cleaved; N-terminal SNAP kept (SNAP-Surface 488); label: 3' end held by stalled T7 RNA polymerase

Row | Binder | Kd
1 | B1 | 0.0156 ± 0.003 µM
2 | B2 | 0.018 ± 0.0024 µM
3 | B3 | 0.0071 ± 0.0032 µM
4 | B4 | 0.0133 ± 0.002 µM
5 | B5 | 0.0043 ± 0.0009 µM
6 | B6 | 0.0151 ± 0.0033 µM
7 | B7 | 0.0102 ± 0.0031 µM
8 | B8 | 0.004 ± 0.0013 µM
9 | B9 | 0.015 ± 0.005 µM
10 | B10 | 0.048 ± 0.011 µM
11 | B11 | 0.0064 ± 0.0005 µM
12 | B12 | 0.0087 ± 0.0022 µM
13 | B13 | 0.0023 ± 0.0004 µM
14 | B14 | 0.0231 ± 0.0031 µM
15 | B15 | 0.0049 ± 0.0011 µM
16 | B16 | 0.033 ± 0.009 µM
17 | B17 | 0.0063 ± 0.0017 µM
18 | B18 | 0.0073 ± 0.0014 µM
19 | B19 | 0.0073 ± 0.0011 µM
20 | B20 | 0.012 ± 0.0007 µM
21 | B21 | 0.0123 ± 0.0021 µM
22 | B22 | 0.00387 ± 0.00021 µM
23 | B23 | 0.0123 ± 0.0026 µM
24 | B24 | 0.0108 ± 0.0024 µM
25 | B25 | 0.0064 ± 0.0013 µM
26 | B26 | 0.0142 ± 0.0015 µM
27 | B27 | 0.047 ± 0.009 µM
28 | B28 | 0.034 ± 0.007 µM
